These results are taken from patent US20260159561A1 (MyNeuroCure Oy, priority 2017, published 2026).

Series [1] deals with rat model of cerebral ischemia.
Procedure: Male Sprague Dawley rats (weight 230-270 g, Envigo, Netherlands) were used for the experiments which were conducted according to the 3R principles of EU directive 2010/63/EU on the care and use of experimental animals, local laws and regulations, and were approved by the national Animal Experiment Board of Finland All experiments were performed in a blinded manner and the rats were assigned to different treatment groups randomly. Rats were anesthesized with chloral hydrate (0.4 g/kg, i.p). […] Briefly, the bilateral CCAs were identified and isolated through a ventral midline cervical incision. Rats were placed in stereotaxic apparatus and a craniotomy was made in the right hemisphere. The right (MCA) was ligated with a 10-0 suture and bilateral common carotids (CCA) were ligated with non-traumatic arterial clamps for 60 minutes. After sixty minutes of ischemia, the suture around the MCA and arterial clips on CCAs were removed to introduce a reperfusional injury. After recovery from anesthesia, the rats were returned to their home cage. Body temperatures during and after surgery were maintained at 37° C.
To test the neuroprotective effect of subcutaneous C-CDNF, 50 μg of C-CDNF was given 30-50 min before dMCA occlusion and immediately after reperfusion in volume of 100 μl s.c. Phosphate-buffered saline (PBS) was used as vehicle control. The rats were euthanized 2 days after dMCAo to measure the infarction volume by 2% 2,3,5-triphenyltetrazolium chloride (TTC; Sigma Aldrich, St. Louis, MO) staining. Rats were decapitated and the brains were removed and sliced into 2.0-mm-thick sections using an acrylic rat brain block. The brain slices were incubated in a 2% TTC solution (Sigma, St. Louis, MO, USA) for 15 min at room temperature and then transferred into a 4% paraformaldehyde solution for fixation. The area of infarction in each slice was measured with a digital scanner and ImageJ software. The volume of infarction in each animal was obtained from the product of average slice thickness (2 mm) and sum of infarction areas in rostral brain slices examined. […]
Series [2] has as its system Huntington's disease rat model (quinolinic acid). Kind of series: Quinolinic acid Huntington's disease rat model, rotarod and grip strength. In kind it is in vivo. Conditions: single intrastriatal injection 2 weeks after QA, vs QA+PBS. From the text:
Adult Wistar rats received a single, unilateral intrastriatal injection of quinolinic acid (QA) 225 nmol into coordinates: A/P+0.7; L/M+2.8; D/V −6.0. Quinolinic acid is a toxin that induces striatal neuron death by an excitotoxic process. […] Rats were randomized to groups before the treatments started. Rotarod and grip strength tests were done weekly.
Background: The rotarod test checks motor coordination on a turning rod.

For series [3] the following is noted: rat, in vivo, sc.
Procedure: ^125I-CDNF, ^125I C-CDNF or ^125I C-MANF (all proteins at 106 cpm in 10 μl) were injected subcutaneously to adult male Wistar rats. Animals were perfused with PBS 2 hours later. Radioactivity was analyzed in different brain regions by gamma counter. Data are shown as mean±SEM. The differences between groups were analyzed ANOVA followed by Tukey-Kramers post hoc test.
Another series relates to ER stressed SCG neurons. Briefly: Survival of tunicamycin ER-stressed SCG neurons microinjected with recombinant protein. In kind it is cell-based, mouse. As to conditions: recombinant protein microinjected into the cytoplasm; tunicamycin 2 μM; counted after 3 days. The method, then:
(§1) Non-neuronal cells were removed by extensive preplating. Almost pure neurons were cultured in polyornithine/laminin (Sigma)-coated 35-mm plastic dishes in the small-size standard microislands in the Neurobasal medium and B27 supplement (Invitrogen/Gibco) in the presence of 30 ng/ml mouse nerve growth factor (NGF) (Promega) for 5-6 days. NGF was deprived by extensive washing and addition of the function-blocking anti-NGF antibodies (Roche). The neurons were pressure-microinjected with special neuronal microinjection equipment (Hellman et al., 2011; Hamner et al., 2001; Lindholm et al., 2002; Sun et al., 2001; Yu et al., 2003)(Sun et al., 2001; Sun et al., 2003). For the survival assay, all neurons on the microislands were counted in the beginning (initial number) and the end (three days) of the experiment and expressed as % of initial.
(§2) Microinjection of the sympathetic neurons was performed as described earlier (Yu, L. Y., Jokitalo, E., Sun, Y. F., Mehlen, P., Lindholm, D., Saarma, M., and Arumäe, U. (2003) J. Cell Biol. 163, 987-997). […] Next day tunicamycin (2 μM) was added, and after 3 days the living fluorescent neurons were counted. Living fluorescent (EGFP-expressing or Dextran Texas Red-containing) neurons were “blindly” counted three days later and expressed as percent of initial living fluorescent neurons counted 2-3 hours after microinjection. […]

Series [4] has as its system SOD1-G93A mice. Briefly: SOD1-G93A mouse ALS model, single intracerebroventricular injection. In kind it is in vivo. As to conditions: females, vs PBS. From the text:
(§3) Transgenic SOD1 G93A mice served as a transgenic mouse model for ALS in this study. Transgenic mice containing various human SOD1 mutations develop progressive neurodegeneration and motoneuron (MN) death, providing an animal model that has been commonly used for preclinical trials and that has greatly contributed to the understanding of FALS pathogenesis (Gurney et al., 1994). […] In these mice hind limb weakness and tremulous movement appear as initial symptoms at 8-10 week of age, followed by major symptoms such as progressive motor paralysis and neurogenic amyotrophy (Shibata 2001). These mice subsequently show disability of gait, eating and drinking and die within some weeks, usually at 14-16 week of age. […] Transgenic expression was analyzed by DNA tail tests and PCR, using specific oligonucleotides and conditions as done previously by others (see homepage Jackson Lab). […]
Mice were then evaluated for signs of disease and body weight changes twice a week. […]
(§4) Clinical scoring for SOD1 mice was done using instructions from Jackson laboratory. […] Animals were scored by lifting them gently by the base of their tails and observing them for tremors, stiffness and their ability to extend their limbs. […]

Series [5] has as its system ER stressed superior cervical ganglia (SCG) sympathetic neurons. Kind of series: Survival of tunicamycin ER-stressed SCG neurons microinjected with expression plasmids. Conditions: expressed from microinjected plasmids; tunicamycin 2 μM; counted after three days. In kind it is cell-based, mouse. How it is done: as §1, §2
For series [6], the system named is SOD1-G93A mice. Briefly: SOD1-G93A mouse ALS model, 4-week chronic intracerebroventricular infusion. In kind it is in vivo. As to conditions: i.c.v. infusion 1.5 μg/24 h for 4 weeks, vs PBS.
Source text: as §3, with “2001).” for “2001). These mice subsequently show disability of gait, eating and drinking and die within some weeks, usually at 14-16 week of age.”
In the chronic infusion experiment, 12-week-old SOD1 mice were inserted a brain infusion cannula (connected via catheter-tubing to an Alzet osmotic minipump) to the right lateral ventricle under isoflurane anesthesia. […] Motor behavior was evaluated with rotarod. Mice were evaluated for clinical signs and body weight changes.
as §4

Entries after “also recorded” stand apart in the source; their conditions may differ.

B1: C-CDNF: Human C-CDNF, SEQ ID NO: 4: C-terminal domain of mature CDNF, amino acid 101 to 161; recombinant, Histidine tag at C-terminus (protein, listed as Homo sapiens)
chain: KYEKTLDLASVDLRKMRVAELKQILHSWGEECRACAEKTDYVNLIQELAPKYAATHPKTEL
Regarding B1, the infarction volume result in series [1] (50 μg s.c. before dMCA occlusion and after reperfusion, rostral part of cerebral cortex, 2 days after dMCAo) is listed as “decreases the infarction volume”. For the same molecule, the “lesion size, smaller than in vehicle treated rats” value in series [1] (50 μg s.c. before occlusion and after reperfusion, vs PBS) is “about 50%”. The “blood pressure and heart rate” value in series [1] (rat, in vivo) was “does not affect blood pressure and heart rate”. Also, the “rotarod latency to fall (motor behavior)” value in series [2] (equimolar to CDNF 10 micrograms) is “improved motor behavior statistically significantly; also recorded: improved motor performance in both rotarod and grip strength tests”. For the same molecule, the “grip strength (left paw)” value in series [2] (3 and 5 week time points) was “significantly improved performance at 3 and 5 week time points; also recorded: improved motor performance in both rotarod and grip strength tests”. Further, the “blood-brain-barrier penetration (radioactivity in brain)” value in series [3] is “capable of penetrating neuronal cell membrane as well as the blood-brain-barrier”. Also, the results for the “living fluorescent neurons, percentage of initial neurons” value (in the series on ER stressed SCG neurons; in series [5]) were “rescue ER stressed SCG neurons” and “rescue ER stressed superior cervical ganglia (SCG) sympathetic neurons”, respectively. Besides, the clinical score entry with SOD1-G93A mice [4] (single i.c.v. 3.75 μg at 13 weeks of age) is recorded as “statistically significantly better clinical scores”. Moreover, in the series on SOD1-G93A mice [4] (single i.c.v. 3.75 μg, 4-40 rpm, cut-off 4 min), the “rotarod latency to fall” value is recorded as “improves the motor behavior”. In the series on SOD1-G93A mice [6] (significant week 13 until week 19), the “rotarod performance (motor coordination)” value is listed as “improves motor coordination”. In addition, the “relative changes in body weight” value in the series on SOD1-G93A mice [6] (weeks 18 and 19) is recorded as “Significant differences between treatments in body weight”.
